The numbers were not newly measured in paper doi:10.1101/2023.08.17.553741, which cites them from elsewhere.

The data set concerns the target SARS-CoV-2 spike protein (target of cited Kd) (SARS-CoV-2) (UniProt P0DTC2). The settings on record: 3' thiol C3, […] (temperature not stated), PBS 1X.

In the case of “TTCCGGTTAATTTATGCTCTACCCGTCCACCTACCGGAATTTTTTTTTTTTTTTTTTTTACGGGTTTGGCGTCGGGCCTGGCGGGGGGATAGTGCGGT [dimeric aptamer (S1-20T-S2-thiolC3)]”, the Kd was 170 pM.

A word on the Kd: it is the free concentration of one partner at which half of the binding sites on the other are occupied at equilibrium, for simple one-to-one binding.
